# Laboratory results reported in publication PMC11335211, “In vivo photocontrol of orexin receptors with a nanomolar light-regulated analogue of orexin-B” (Cellular and Molecular Life Sciences: CMLS, 2024).
# What was measured:
# human OX1 = biological target: T1, human OX1 (Homo sapiens, UniProt O43613); assay: FLIPR Tetra calcium mobilization assay, CHO-K1 cells; format: cell-based; conditions: CHO-K1 cells stably expressing hOX1; 0.3 nM to 1 µM; two independent experiments in triplicates
# T1 construct: expressed in transfected cells
# T1 sequence (O43613 1-425): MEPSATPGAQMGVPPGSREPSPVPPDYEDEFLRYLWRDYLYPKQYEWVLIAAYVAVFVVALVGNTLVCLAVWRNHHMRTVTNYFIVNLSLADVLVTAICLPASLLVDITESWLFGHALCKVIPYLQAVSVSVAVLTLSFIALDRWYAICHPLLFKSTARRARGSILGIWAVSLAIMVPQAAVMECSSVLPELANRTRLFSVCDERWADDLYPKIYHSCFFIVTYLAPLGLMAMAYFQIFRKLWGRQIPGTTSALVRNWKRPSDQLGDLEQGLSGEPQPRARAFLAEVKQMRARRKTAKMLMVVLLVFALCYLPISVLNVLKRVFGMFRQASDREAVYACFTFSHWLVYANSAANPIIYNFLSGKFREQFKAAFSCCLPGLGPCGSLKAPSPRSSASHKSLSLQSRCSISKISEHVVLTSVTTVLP
# Description: (§1) Samples of trans phOX were kept in the dark both prior to and during the whole duration of the experiment to avoid undesired photoconversion caused by environmental light. Unless differently stated, data for cis phOX were obtained by pre-illuminating the samples for 10 min with 365 nm UV light.
# (§2) PFSK-1 cells were cultured in RPMI 1640 supplemented with 10% fetal bovine serum (FBS), 100 units/ml penicillin, and 100 µg/ml streptomycin. Chinese hamster ovary-K1 (CHO-K1) cells stably transfected to express human OX1 were cultured in Dulbecco’s Modified Eagle’s Medium/Nutrient Mixture F-12 Ham (DMEM/F12 1:1) medium supplemented with 10% FBS and 600 µg/ml G418. All cell lines were grown at 37 °C in 5% CO2.
# (§3) Cells were plated at 50,000 cells/well in 96-well black-wall plates with poly-D-lysine-coated clear bottoms and grown overnight at 37 °C in 5% CO2. […] Calcium-mediated changes in fluorescence were monitored in a Fluorometric Imaging Plate Reader (FLIPR) Tetra instrument (Molecular Devices, USA). Fluorescence intensity was measured for 12 s to establish baseline fluorescence before addition of the test compound (20 µL/well) and further readings for a total of 155 s (excitation at 470–495 nm, detection at 515–575 nm). […]
# (§4) Raw data from the FLIPR Tetra was exported as the difference between maximum and minimum fluorescence observed for each well. […] Agonist potencies (EC50) are expressed as means + SD.
# hOX2 [1] = biological target: T2, hOX2 (Homo sapiens, UniProt O43614); assay: FLIPR Tetra calcium mobilization assay, PFSK-1 cells; format: cell-based; conditions: PFSK-1 cells innately expressing hOX2; 0.3 nM to 1 µM; two independent experiments in triplicates
# T2 sequence (O43614 1-444): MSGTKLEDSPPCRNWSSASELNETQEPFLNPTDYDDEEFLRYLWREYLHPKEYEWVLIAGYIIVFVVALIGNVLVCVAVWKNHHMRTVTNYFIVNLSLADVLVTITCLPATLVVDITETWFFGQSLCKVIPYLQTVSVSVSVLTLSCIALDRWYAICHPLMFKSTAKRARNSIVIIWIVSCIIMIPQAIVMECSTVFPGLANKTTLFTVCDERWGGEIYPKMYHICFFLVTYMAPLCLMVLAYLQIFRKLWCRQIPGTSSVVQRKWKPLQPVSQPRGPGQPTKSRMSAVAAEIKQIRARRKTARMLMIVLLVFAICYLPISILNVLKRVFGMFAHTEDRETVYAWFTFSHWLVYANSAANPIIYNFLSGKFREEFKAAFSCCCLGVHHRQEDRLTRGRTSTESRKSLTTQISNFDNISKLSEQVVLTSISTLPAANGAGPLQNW
# Description: as §1, §2, §3, §4
# OX2 = conditions: in words; cited from earlier work
# From the text: Among these, a family of neuroexcitatory peptides known as orexins (or hypocretins) is critically involved in regulating sleep and wakefulness, energy homeostasis, and reward. Orexin signaling is mediated by two closely related G protein-coupled receptors (GPCRs) – OX1 and OX2 (orexin) receptors – which are strongly conserved among mammals. While orexin cell bodies are concentrated in the hypothalamic area, orexin receptors are widely expressed in the central nervous system (CNS). Their endogenous ligands are two peptides, named ...
# OX1 receptor = conditions: membrane-based binding assay; ref Langmead et al., 5 (SI); cited from earlier work
# From the text: Although the lack of binding with all three forms of OX-B - including the native ligand control - came unexpected, similar findings had already been observed for the OX1 receptor.
# [2] = set-up: method as in 2 sources, one per row (each row's own in cited_ref): ref 75–77 = [75]; PMID 10087007; 75. Kastin AJ Akerstrom V Orexin A but not orexin B rapidly enters brain from blood by simple diffusion J Pharmacol Exp Ther 1999 289 219 223 10087007 || [76]; PMID 12626669; doi:10.1113/jphysiol.2002.038729; 76. John J Wu M-F Kodama T Siegel JM Intravenously administered hypocretin-1 alters brain amino acid release: an in vivo microdialysis study in rats J Physiol 2003 548 557 562 10.1113/jphysiol.2002.03 || [77]; PMID 14746374; doi:10.1093/sleep/26.8.953; 77. Fujiki N Yoshida Y Ripley B Mignot E Nishino S Effects of IV and ICV hypocretin-1 (orexin A) in hypocretin receptor-2 gene mutated narcoleptic dogs and IV hypocretin-1 replacement therapy in a hyp ||| ref 75 = [75]; PMID 10087007; 75. Kastin AJ Akerstrom V Orexin A but not orexin B rapidly enters brain from blood by simple diffusion J Pharmacol Exp Ther 1999 289 219 223 10087007; conditions: cited from earlier work
# [3] = set-up: method as in PMID 10087007; conditions: cited from earlier work
# hOX2 [4] = biological target: T2, hOX2; assay: Radioligand competitive binding assay ([3H]EMPA); set-up: expressed in transfected cells; membranes; conditions: control ligands; HEK-293-hOX2 membranes, [3H]EMPA 2 nM, 60 min rt, 10^-9 to 10^-6 M; two independent experiments in triplicates
# From the text: The affinity towards OX2 was studied in a competitive radioligand binding assay on membranes derived from HEK-293 cells stably transfected with the human receptor. [^3H]EMPA, an OX2-selective orthosteric antagonist, was used as radioactive tracer to quantify residual binding after competitive displacement in the presence of the unlabeled ligands.^3 Wild-type OX-B and almorexant, a non-selective OX1 and OX2 antagonist, served as controls.^4
# [^3H]EMPA (specific activity 27 Ci/mmol) and almorexant were synthesized at Janssen Research & Development LLC (San Diego, CA), while orexin-B was obtained from Bachem (Torrance, CA).
# Cell membranes were prepared from a stable pool of HEK-293 cells transfected with the human OX2. Test compounds were dissolved in DMSO (10 mM stock solutions) and diluted in Dulbecco’s phosphate-buffered saline supplemented with 0.1% bovine serum albumin (BSA). Competition studies were performed by incubating the membranes with the OX2-selective antagonist [^3H]EMPA (2 nM) and different concentrations of the test compounds (7 concentrations ranging from 10^−9 to 10^−6 M). After a 60-minute incubation at rt, binding reactions were filtered to separate the excess of free ligand from the membranes. Filters were then counted for radioactivity in a scintillation counter. Nonspecific binding was determined in the presence of 10 µM almorexant.
# Specific binding was determined and plotted as a function of the concentration of the compound using GraphPad Prism v8.3.1 (GraphPad Software, San Diego, USA). Data were analyzed by nonlinear regression using a one-site competition model.
substance,measurement,setting,value
"OX-B: endogenous orexin peptide, native ligand control, obtained from Bachem",increase in calcium release (agonist activity),human OX1,increased calcium release in a concentration-dependent manner
same,increase in calcium release (agonist activity),hOX2 [1],increased calcium release in a concentration-dependent manner
same,receptor selectivity,OX2,selective for OX2
same,occupation of OX1 orthosteric site versus [3H]SB-674042,OX1 receptor,failed to occupy the receptor orthosteric site
same,metabolism,[2],readily metabolized
same,lipophilicity relative to OX-A,[3],not as lipophilic
same,inhibition of [3H]EMPA binding,hOX2 [4],did not compete to bind to the receptor
